The results in this text go back to US20230235004A1.

The target of the experiment is recombinant mouse MAdCAM-1 (mouse) (UniProt Q61826). Briefly: Octet.
recombinant mouse MAdCAM-1 (mouse), sequence (Q61826 22-364 limits assumed): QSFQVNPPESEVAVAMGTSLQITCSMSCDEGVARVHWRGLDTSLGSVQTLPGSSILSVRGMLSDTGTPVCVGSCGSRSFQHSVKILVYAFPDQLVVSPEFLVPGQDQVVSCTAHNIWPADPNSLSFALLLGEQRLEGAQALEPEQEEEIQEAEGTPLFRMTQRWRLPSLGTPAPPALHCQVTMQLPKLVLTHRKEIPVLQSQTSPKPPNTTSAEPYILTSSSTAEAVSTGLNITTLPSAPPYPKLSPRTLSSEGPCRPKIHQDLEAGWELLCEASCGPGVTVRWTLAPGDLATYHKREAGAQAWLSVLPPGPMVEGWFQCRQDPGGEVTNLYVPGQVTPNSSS

B1: MAdCAM antibody Table 1 clone 1 (scFv)
scFv: EVQLLESGGGLVQPGGSLRLSCAASGFTFSSYGMHWVRQAPGKGLEWVAVISDDGSDKYYADSVKGRFTISRDNSKNTLYLQMNSLRAEDTAVYYCTTSKYYYYYGMDVWGQGTTVTVSSGGGGSGGGGSGGGGSGGGGSDIQMTQSPSSLSASVGDRVTITCQASQDISKSLNWYQQKPGKAPKLLIYAASSLQSGVPSRFSGSGSGTDFTLTISSLQPEDFATYYCQQGYSTPLTFGGGTKVEIK
As to B1, the MAdCAM Octet Binding was 0.16.
